US20250011363A1, “OPTIMIZED SHORTENED PEPTIDE THAT BINDS TO ACETYLCHOLINE RECEPTOR, AND USE THEREOF” (SKINMED CO., LTD., priority 2021, published 2025)

Molecular target: acetylcholine receptor (Homo sapiens, UniProt P02708)
Test: SPR binding affinity (RU) of optimized 5mer/6mer/7mer peptides, Examples 6-7
Conditions: SPR, peptides tested at 10 μM; 5mer Top sequence
Method: Based on the frequencies of occurrence of the top 7 amino acids from Table 7 in Example 5, 600 peptides comprising these amino acids (top combinations) and those comprising the 13 less frequently occurring amino acids (bottom combinations) were synthesized for each series of 5mer, 6mer-1, and 6mer-2. The binding affinity of each sequence for the acetylcholine receptor was measured using Surface Plasmon Resonance (SPR) analysis method. The peptides were tested at a concentration of 10 μM. Additionally, the average binding affinities of the top and bottom combinations in each series are depicted in FIGS. 5-7.
Representative peptides identified in Example 6, two in each library, including 5mers (73, 311) and 6mers-1 (43, 210) and 6mers-2 (136, 233), were compared with the pre-optimized 6mer, 5mer-ND, and Synake.

Sequence of acetylcholine receptor (P02708 21-457): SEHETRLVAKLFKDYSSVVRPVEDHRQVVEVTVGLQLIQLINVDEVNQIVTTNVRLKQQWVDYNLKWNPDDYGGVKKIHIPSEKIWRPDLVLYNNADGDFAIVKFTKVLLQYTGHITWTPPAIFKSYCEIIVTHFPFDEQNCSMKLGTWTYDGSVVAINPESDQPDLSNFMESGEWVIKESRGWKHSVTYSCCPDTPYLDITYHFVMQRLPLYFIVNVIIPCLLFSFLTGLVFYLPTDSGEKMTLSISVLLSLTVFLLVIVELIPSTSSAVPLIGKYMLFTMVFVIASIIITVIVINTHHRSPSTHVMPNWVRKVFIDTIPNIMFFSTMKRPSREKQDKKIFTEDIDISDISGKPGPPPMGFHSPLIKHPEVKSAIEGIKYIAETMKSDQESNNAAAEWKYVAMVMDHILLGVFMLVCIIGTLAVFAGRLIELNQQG

Substance	Binding affinity [Ru]
5mer-373 (KVFTK)	87
5mer-374 (KLFTR)	75
5mer-375 (KQLCR)	84
5mer-376 (KGQLR)	65
5mer-377 (KGFYK)	67
5mer-378 (RRLSK)	65
5mer-379 (KSRLR)	79
5mer-380 (KRYLK)	82
5mer-381 (KGQRR)	87
5mer-382 (RLRQR)	62
5mer-383 (RWQRK)	56
5mer-384 (KSLRK)	75
5mer-385 (RGVYR)	51
5mer-386 (RSFLK)	78
5mer-387 (RRILR)	52
5mer-388 (KLFCK)	78
5mer-389 (KWRRR)	57
5mer-390 (KRFCR)	64
5mer-391 (KVFRR)	72
5mer-392 (RSRLR)	87
5mer-393 (KSLQR)	75
5mer-394 (KRRRK)	66
5mer-395 (RWVCK)	50
5mer-396 (KVVCR)	53

Substance	Binding affinity [Ru]
5mer-397 (RRITK)	52
5mer-398 (KGQCR)	71
5mer-399 (KWIQR)	62
5mer-400 (RWRCK)	70
5mer-401 (RGVLR)	52
5mer-402 (RLRYR)	86
5mer-403 (RRLYK)	64
5mer-404 (KGYLK)	83
5mer-405 (KSYTK)	68
5mer-406 (KVYLR)	84
5mer-407 (RQIYK)	58
5mer-408 (KVFRK)	74
5mer-409 (KQIYK)	62
5mer-410 (RRFLR)	76
5mer-411 (KGRLR)	66
5mer-412 (RGRSR)	81
5mer-413 (RWLTR)	56
5mer-414 (KVRCK)	71
5mer-415 (KVFLR)	77
5mer-416 (KLYLR)	67
5mer-417 (KWLQK)	65
5mer-418 (RWRTR)	53
5mer-419 (RVYTR)	67
5mer-420 (KLFCR)	84

Substance	Binding affinity [Ru]
5mer-421 (RVVYK)	68
5mer-422 (KWICK)	87
5mer-423 (RRQLK)	60
5mer-424 (RVYLK)	87
5mer-425 (RGFYR)	80
5mer-426 (RRVSR)	57
5mer-427 (RGLYR)	87
5mer-428 (RQFLK)	86
5mer-429 (KSQYK)	63
5mer-430 (KWRTK)	80
5mer-431 (KVQLK)	81
5mer-432 (RQVRR)	52
5mer-433 (KWRCR)	73
5mer-434 (RVLQK)	74
5mer-435 (KLRQR)	69
5mer-436 (RVFYK)	60
5mer-437 (RVRLR)	50
5mer-438 (RVRSR)	76
5mer-439 (KRVTR)	65
5mer-440 (RQVTK)	57
5mer-441 (KLIRK)	53
5mer-442 (KVRLR)	61
5mer-443 (RGFTK)	80
5mer-444 (KQQYR)	65

Substance	Binding affinity [Ru]
5mer-445 (RLFTR)	77
5mer-446 (RGLQK)	53
5mer-447 (KGYYK)	76
5mer-448 (RQIRK)	74
5mer-449 (KGLYR)	65
5mer-450 (RVIQK)	78
5mer-451 (RQVLK)	53
5mer-452 (RGVSK)	82
5mer-453 (KGVCR)	68
5mer-454 (RQVLR)	77
5mer-455 (RWLYK)	61
5mer-456 (RLVCK)	52
5mer-457 (RGQYK)	59
5mer-458 (RRFLK)	65
5mer-459 (RSQLR)	76
5mer-460 (RLQQR)	74
5mer-461 (KQLLK)	74
5mer-462 (RWQSK)	69
5mer-463 (KWYTK)	52
5mer-464 (RGVTR)	57
5mer-465 (RWFRK)	57
5mer-466 (RRVRK)	53
5mer-467 (RRIYR)	83
5mer-468 (RWQCK)	54

Substance	Binding affinity [Ru]
5mer-469 (KSRRR)	69
5mer-470 (KQRSK)	57
5mer-471 (RGYLR)	69
5mer-472 (RRYRK)	55
5mer-473 (RLVQR)	75
5mer-474 (RQFLR)	80
5mer-475 (RRFCK)	56
5mer-476 (RSICK)	70
5mer-477 (KGYSR)	58
5mer-478 (RVQTK)	75
5mer-479 (RQYYK)	70
5mer-480 (RWYLR)	75
5mer-481 (KSYCK)	78
5mer-482 (KQFCK)	75
5mer-483 (RSISR)	51
5mer-484 (RSFQK)	51
5mer-485 (KRQRK)	58
5mer-486 (RWLQR)	53
5mer-487 (RLVTK)	62
5mer-488 (KVRSR)	58
5mer-489 (KSYSR)	63
5mer-490 (RWLLK)	60
5mer-491 (KQIRR)	81
5mer-492 (RVVLR)	80

Substance	Binding affinity [Ru]
5mer-493 (KSIRR)	57
5mer-494 (RGFCK)	54
5mer-495 (KVVTK)	52
5mer-496 (KGIQK)	81
5mer-497 (KRRCR)	76
5mer-498 (KLISK)	53
5mer-499 (RVLTK)	76
5mer-500 (KSLQK)	63
5mer-501 (KLQRK)	78
5mer-502 (RRISR)	84
5mer-503 (KRVSK)	61
5mer-504 (KQIQR)	72
5mer-505 (RQIYR)	71
5mer-506 (RGRLR)	51
5mer-507 (KWVQK)	84
5mer-508 (KGLQK)	67
5mer-509 (RVQRK)	61
5mer-510 (RQLSK)	71
5mer-511 (KSLSR)	56

Same assay, conditions: SPR, peptides tested at 10 μM; 5mer Top sequence (top combinations)

Substance	Binding affinity [Ru]
5mer-512 (RLYLK)	70
5mer-513 (RWYYK)	83
5mer-514 (KLLLK)	52
5mer-515 (RGQRK)	56
5mer-516 (KWQTR)	83
5mer-517 (KGYTR)	70
5mer-518 (RVYYR)	87
5mer-519 (RLYSK)	72
5mer-520 (RVLLK)	86
5mer-521 (KRFRK)	78
5mer-522 (RLVYR)	78
5mer-523 (KQFQK)	84
5mer-524 (RRICR)	83
5mer-525 (KQRYK)	51
5mer-526 (KQFSR)	54
5mer-527 (KSVQR)	70
5mer-528 (RVLLR)	50
5mer-529 (RVQSR)	84
5mer-530 (RWRRR)	80
5mer-531 (KRQSR)	65
5mer-532 (KQICK)	75
5mer-533 (RLVYK)	84
5mer-534 (RRQLR)	50
5mer-535 (KSLLR)	70
5mer-536 (RLITK)	78
5mer-537 (RLRLR)	59
5mer-538 (KQQQR)	72
5mer-539 (RVVTR)	70
5mer-540 (RQFYR)	74
